This is an account of results in patent US20220406376A1 (MacroGenics, published 2022).

For assay [1], the target named is T1, CD137 on the surface of cells (activated human T cells; engineered CHO cells) (human, UniProt Q07011 24-255).
T1 construct: whole, on cells; also called human CD137; cell surface expressed CD137
Put plainly: flow cytometry on activated CD8+ T cells (CD8 FITC), anti-hFc APC MFI. Background: A flow cytometer gives signals particle by particle.

For assay [2], the target named is T1, CD137 on the surface of cells …. Description: flow cytometry on activated CD8+ T cells (donor D53781, CD8 FITC), anti-hFc APC MFI.
Assay [3] addresses T2, extracellular portion of cynomolgus monkey CD137 fused to a histidine-containing peptide (cynomolgus monkey, UniProt A9YYE7 24-186).
T2 construct: extracellular domain; also called cynoCD137
T2 sequence: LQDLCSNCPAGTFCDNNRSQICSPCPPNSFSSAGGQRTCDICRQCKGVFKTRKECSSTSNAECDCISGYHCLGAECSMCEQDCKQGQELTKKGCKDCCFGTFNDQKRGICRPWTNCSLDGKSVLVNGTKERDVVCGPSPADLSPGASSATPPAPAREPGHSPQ
Description: SPR (BIACORE); molecule captured on anti-human Fc; cynoCD137 6.25-100 nM; column head ×10^-4 applied as printed. As to the method:
(§1) The amino acid sequences of these clones were incorporated into the 5 chain diabody DART-G to yield optimized DART-G molecules (designated as DART-G1, DART-G2; DART-G3, and DART-G4). The binding affinity of DART-G2, DART-G3, and DART-G4 were evaluated via BIAcore (Table 11). For such evaluation, His-tagged soluble human CD137 (huCD137) or cynomolgus monkey CD137 (cynoCD137) (containing an extracellular portion of human or cynomolgus monkey CD137 fused to a histidine-containing peptide) was passed over a surface coated with immobilized antibody. Briefly, each test molecule was captured onto an F(ab)₂ goat-anti-human Fc-coated surface and then incubated in the presence of different concentrations (6.25-100 nM) of huCD137 or cynoCD137. The kinetics of binding were determined via BIACORE® analysis binding (normalized 1:1 Langmuir binding model).
(In general: Surface plasmon resonance follows binding to a sensor surface in real time, without labels.)

Assay [4] has as its target T3, HER2/neu on the surface of target cells (N87, JIMT-1, MCF-7, MDA-MB231) (UniProt P04626 23-1255, limits assumed).
T3 construct: whole, on cells
Put plainly: flow cytometry on JIMT-1 cells, anti-hFc APC MFI. As to the method:
(§2) CD137×TA Binding Molecules, DART-B, DART-D, DART-G and the control molecules DART-3 and DART-6 were additionally evaluated for their ability to bind to HER2/neu expressed on N87 cells (FIG. 13A) and JIMT-1 cells (FIG. 13B). For such evaluation, 100 μL of HER2/neu expressing target cells (1.0×1⁰⁶ cells/mL) and 100 μL of serially diluted (5- or 10-fold dilutions) test article (bispecific diabody) were added to each well of microtiter assay plate(s), mixed and incubated at RT for 45 min. The cells were washed with FACS Buffer and secondary antibody (anti-human-Fc region-APC) was then added to each well; mixed and incubated at RT for 30 min. Cells were washed and resuspended in 100 μL FACS Buffer and analyzed by flow cytometry (BD LSR Fortessa or FACSCanto 11) for cell event collection. Data analysis were performed via FloJo v10.

Assay [5] concerns the target T2, extracellular portion of cynomolgus …. Put plainly: SPR (BIACORE); molecule captured on anti-human Fc; cynoCD137 6.25-100 nM; 1:1 Langmuir. The method, then:
as §1

Assay [6] has as its target T1, CD137 on the surface of cells …. Put plainly: flow cytometry on CD137-expressing CHO cells (CHO/137), anti-hFc APC MFI.
Assay [7] has as its target T4, extracellular portion of human CD137 fused to a histidine-containing peptide (human, UniProt Q07011 24-186).
T4 construct: extracellular domain; also called huCD137; His-tagged soluble human CD137
Description: SPR (BIACORE); molecule captured on anti-human Fc; huCD137 6.25-100 nM; 1:1 Langmuir. The method, then: as §1

The target of assay [8] is T1, CD137 on the surface of cells …. Put plainly: flow cytometry on activated pan T cells (donor D46433, CD8 PE), anti-hFc APC MFI.
For assay [9] the target is unchanged. Description: flow cytometry on CD137-expressing CHO cells (CHO/137), anti-hFc APC MFI. This is another data set of the same source.
Assay [10] addresses T3, HER2/neu on the surface of target cells …. Put plainly: flow cytometry on N87 cells, anti-hFc APC MFI. As to the method:
as §2

Assay [11] shares this target. Description: flow cytometry on JIMT-1 cells, anti-hFc APC MFI. The source holds these as a separate data set.
For assay [12] the target is unchanged. Description: flow cytometry on N87 cells, anti-hFc APC MFI. This is another data set of the same source.
For assay [13] the target is unchanged. Description: flow cytometry on MCF-7 cells, anti-hFc APC MFI.
The target of assay [14] is T1, CD137 on the surface of cells …. Put plainly: flow cytometry on activated pan T cells gated CD8+ (donor D43867), anti-hFc APC MFI. The method, then:
Three antibodies were selected for further study. For such evaluations, purified pan T-cells (see above) were stimulated with anti-CD3/CD28 beads (cells:beads=1:1) for 72 hours in the presence of IL-2 (100 U/mL). 100 μL of activated T cells (1.0×10⁶ cells/mL) and 100 μL of serially diluted (5- or 10-fold dilutions) test article (antibody or bispecific diabody) was added to each well of microtiter assay plate(s), mixed and incubated at RT for 45 min. The cells were washed with FACS Buffer and secondary antibody (anti-human-Fc region-APC) was then added to each well; mixed and incubated at RT for 30 min. Cells were then washed FACS Buffer and T cell surface marker antibodies (anti-CD4 labeled with V510, and anti-CD8 labeled with FITC) were then added to each well; mixed and incubated at RT for 30 min. Cells were washed and resuspended in 100 μL FACS Buffer and analyzed by flow cytometry (BD LSR Fortessa or FACSCanto 11) for cell event collection. Data analysis were performed via FloJo v10.

T1 sequence (Q07011 24-255, change not shown): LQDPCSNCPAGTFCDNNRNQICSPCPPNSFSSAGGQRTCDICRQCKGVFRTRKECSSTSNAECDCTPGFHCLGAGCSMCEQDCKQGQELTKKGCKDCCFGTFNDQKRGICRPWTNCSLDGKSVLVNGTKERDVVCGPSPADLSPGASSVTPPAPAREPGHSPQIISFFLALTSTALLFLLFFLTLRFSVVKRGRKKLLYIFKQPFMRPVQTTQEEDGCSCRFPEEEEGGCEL

B1: DART-G (bispecific antibody, human IgG1, kappa, L234A L235A)
heavy: QVQLVQSGAEVKKPGASVKVSCKASGYTFTNYGMNWVRQAPGQGLEWMGWINTNIGEPTYTEEFKGRVTMTRDTSISTAYMELSRLRSDDTAVYYCARDDGYGNRVSYWGQGTLVTVSSASTKGPSVFPLAPSSKSTSGGTAALGCLVKDYFPEPVTVSWNSGALTSGVHTFPAVLQSSGLYSLSSVVTVPSSSLGTQTYICNVNHKPSNTKVDKRVEPKSCDKTHTCPPCPAPEAAGGPSVFLFPPKPKDTLMISRTPEVTCVVVDVSHEDPEVKFNWYVDGVEVHNAKTKPREEQYNSTYRVVSVLTVLHQDWLNGKEYKCKVSNKALPAPIEKTISKAKGQPREPQVYTLPPSREEMTKNQVSLSCAVKGFYPSDIAVEWESNGQPENNYKTTPPVLDSDGSFFLVSKLTVDKSRWQQGNVFSCSVMHEALHNRYTQKSLSLSPGK
light: DIQMTQSPSSLSASVGDRVTITCKASQDISNYLSWFQQKPGKAPKTLIYRANRLQSGVPSRFSGSGSGTDFTLTISSLQPEDFATYYCLQHDEFPWTFGQGTKLEIKRTVAAPSVFIFPPSDEQLKSGTASVVCLLNNFYPREAKVQWKVDNALQSGNSQESVTEQDSKDSTYSLSSTLTLSKADYEKHKVYACEVTHQGLSSPVTKSFNRGEC
chain 1: QVQLVQSGAEVKKPGASVKVSCKASGYTFTNYGMNWVRQAPGQGLEWMGWINTNIGEPTYTEEFKGRVTMTRDTSISTAYMELSRLRSDDTAVYYCARDDGYGNRVSYWGQGTLVTVSSASTKGPSVFPLAPSSKSTSGGTAALGCLVKDYFPEPVTVSWNSGALTSGVHTFPAVLQSSGLYSLSSVVTVPSSSLGTQTYICNVNHKPSNTKVDKRVEPKSCDKTHTCPPCPAPEAAGGPSVFLFPPKPKDTLMISRTPEVTCVVVDVSHEDPEVKFNWYVDGVEVHNAKTKPREEQYNSTYRVVSVLTVLHQDWLNGKEYKCKVSNKALPAPIEKTISKAKGQPREPQVYTLPPSREEMTKNQVSLWCLVKGFYPSDIAVEWESNGQPENNYKTTPPVLDSDGSFFLYSKLTVDKSRWQQGNVFSCSVMHEALHNHYTQKSLSLSPGGGGSGGGSGGGDIQMTQSPSSLSASVGDRVTITCRPSQDISNYLNWYQQKPDKTVKLLIYYTSRLRSGVPSRFSGSGSGTDFTFTISSLQPEDIATYFCQQGDTLPYTFGQGTKLEIKGGGSGGGGQVQLVQSGAEVKKPGASVKVSCKASGYTFTSYWINWVKQAPGQGLEWIGNIYPSDSYTNYNQKFKDKATITADKSTSTAYMELSSLRSEDTAVYYCTRDYGSSYSFDYWGQGTTVTVSSGGCGGGEVAALEKEVAALEKEVAALEKEVAALEK
chain 2: DIQMTQSPSSLSASVGDRVTITCRPSQDISNYLNWYQQKPDKTVKLLIYYTSRLRSGVPSRFSGSGSGTDFTFTISSLQPEDIATYFCQQGDTLPYTFGQGTKLEIKGGGSGGGGQVQLVQSGAEVKKPGASVKVSCKASGYTFTSYWINWVKQAPGQGLEWIGNIYPSDSYTNYNQKFKDKATITADKSTSTAYMELSSLRSEDTAVYYCTRDYGSSYSFDYWGQGTTVTVSSGGCGGGKVAALKEKVAALKEKVAALKEKVAALKE
In the case of B1, the “EC50 (read off the curve)” value in assay [1] was roughly 0.03 µg/mL; in [2] it was roughly 0.03 µg/mL; in assay [4], roughly 0.04 µg/mL; in assay [6] it was roughly 0.02 µg/mL; in assay [8], roughly 0.1 nM; in assay [9], roughly 0.02 µg/mL. Besides, the concentration for a half-maximal effect (EC50 (read off the curve)) in [10] was roughly 0.1 µg/mL; in assay [11] it was roughly 0.2 nM; in assay [12], roughly 0.5 nM; in assay [13], roughly 0.09 nM. Moreover, the koff in [3] was 0.045 s⁻¹; in assay [7], 0.042 s⁻¹. The Kd in assay [5] is 115 nM; in [7] it was 114 nM. Also, the kon in assay [5] is 390000 M⁻¹ s⁻¹; in assay [7] it was 370000 M⁻¹ s⁻¹.

B2: hCD137 MAB-3 (1B.3) (antibody, V domains shown)
VH: QVQLVQSGAEVKKPGASVKVSCKASGYTFTSYWINWVKQAPGQGLEWIGNIYPSDSYTNYNQKFKDKATITADKSTSTAYMELSSLRSEDTAVYYCTRDYGSAYSMSTWGQGTTVTVSS
VL: DIQMTQSPSSLSASVGDRVTITCRPSQDISNYLNWYQQKPDKTVKLLIYYTSRLRSGVPSRFSGSGSGTDFTFTISSLQPEDIATYFCQQGDTLPYTFGQGTKLEIK
For B2, the concentration for a half-maximal effect (EC50 (read off the curve)) in [14] is roughly 0.007 µg/mL.

A word on the EC50 (read off the curve): it is the concentration at which the effect is half-maximal. Usually koff stands for the first-order rate constant of dissociation. The term Kd denotes a measure of binding affinity in units of concentration. By kon is commonly meant the rate constant with which the complex forms.
